Numbered stars: 1 amine (or outer) side, 2 acyl side, 3 side chain; on linkers, the order of the positions; unused ones are H or OH. Bridge positions count the residues as written; N and C are the ends. Square brackets hold non-standard residues; d marks the D form. Ends that are not written are not given here. * marks the point of attachment. X17 = 2‑((1S,2S)-1-(Amino)-2-methylbutyl)‑1,3‑oxazole‑4‑carboxylic acid, CC[C@H](C)[C@H](N[*:1])c1nc(C(=O)[*:2])co1; (3-Chloro-Ph)G = 3-chlorophenylglycine, O=C([C@@H](N[*:1])c1cccc(Cl)c1)[*:2]; Oic = O=C(O)[C@@H]1C[C@@H]2CCCC[C@@H]2N1; Phe(3-Br) = N[C@@H](Cc1cccc(Br)c1)C(=O)O; Cyclobutanecarbonyl = O=C(C1CCC1)*; tBuAla = CC(C)(C)C[C@H](N)C(=O)O; Pen = CC(C)(S)[C@H](N)C(=O)O; αMeP = C[C@@]1(C(=O)O)CCCN1; NMeC = CN[C@@H](CS)C(=O)O; NPhGly = O=C(O)CNc1ccccc1; Pip = O=C(O)[C@@H]1CCCCN1; NMeA = CN[C@@H](C)C(=O)O; Orn = NCCC[C@H](N)C(=O)O; Sar = CNCC(=O)O
T1: Recombinant human MASP1 enzyme (fragment corresponding to amino acids 297-699, C-terminal His Tag) (human, UniProt P48740 297-699)
T1 sequence: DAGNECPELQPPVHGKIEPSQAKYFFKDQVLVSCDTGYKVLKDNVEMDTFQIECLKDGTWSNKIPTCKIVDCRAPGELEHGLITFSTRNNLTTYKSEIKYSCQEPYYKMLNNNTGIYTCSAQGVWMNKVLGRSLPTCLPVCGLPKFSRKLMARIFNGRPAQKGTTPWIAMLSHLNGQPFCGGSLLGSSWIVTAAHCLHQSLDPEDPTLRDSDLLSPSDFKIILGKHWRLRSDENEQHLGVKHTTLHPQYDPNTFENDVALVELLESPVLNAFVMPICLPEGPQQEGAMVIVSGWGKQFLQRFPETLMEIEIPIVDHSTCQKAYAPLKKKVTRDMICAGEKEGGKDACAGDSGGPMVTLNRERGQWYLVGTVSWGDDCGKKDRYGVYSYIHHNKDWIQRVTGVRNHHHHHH

T2: recombinant human MASP1 active protease (amino acids 297-699, C-terminal His Tag) (human, UniProt P48740 297-699)
T2 sequence: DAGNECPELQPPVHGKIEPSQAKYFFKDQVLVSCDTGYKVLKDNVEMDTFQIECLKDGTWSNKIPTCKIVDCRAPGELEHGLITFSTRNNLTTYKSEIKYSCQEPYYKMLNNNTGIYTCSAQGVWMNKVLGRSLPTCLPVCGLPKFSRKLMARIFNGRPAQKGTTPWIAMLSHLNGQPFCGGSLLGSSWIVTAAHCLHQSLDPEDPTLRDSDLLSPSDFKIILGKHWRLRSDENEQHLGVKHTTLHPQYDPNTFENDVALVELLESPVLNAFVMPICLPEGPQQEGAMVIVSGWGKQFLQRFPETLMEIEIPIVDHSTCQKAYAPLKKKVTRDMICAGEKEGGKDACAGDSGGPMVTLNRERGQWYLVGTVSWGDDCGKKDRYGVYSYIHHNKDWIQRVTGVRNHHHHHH


Assays:
Assay in all cases: cell-based or functional assay
[1] = biological target: Recombinant human MASP2 enzyme (fragment corresponding to amino acids 297-686, C-terminal His Tag) (human, UniProt O00187 297-686)
[2] = biological target: T1, Recombinant human MASP1 enzyme …
[3] = biological target: T2, recombinant human MASP1 active protease …

Recombinant human MASP2 enzyme (fragment corresponding to amino acids 297-686, C-terminal His Tag), sequence (O00187 other isoform, or with tags, fused parts or gaps limits assumed): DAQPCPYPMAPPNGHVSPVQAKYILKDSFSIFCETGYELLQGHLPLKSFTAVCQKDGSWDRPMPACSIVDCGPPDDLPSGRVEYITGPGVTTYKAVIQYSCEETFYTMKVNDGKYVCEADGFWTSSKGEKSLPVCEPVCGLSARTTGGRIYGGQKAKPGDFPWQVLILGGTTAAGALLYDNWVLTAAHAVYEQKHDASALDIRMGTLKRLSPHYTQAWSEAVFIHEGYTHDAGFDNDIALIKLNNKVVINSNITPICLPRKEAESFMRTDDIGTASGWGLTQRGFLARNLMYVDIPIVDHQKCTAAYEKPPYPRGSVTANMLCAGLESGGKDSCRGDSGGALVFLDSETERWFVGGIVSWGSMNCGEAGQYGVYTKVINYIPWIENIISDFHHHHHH

Row | human MASP2 IC50 [1] [nM] | human MASP1 IC50 [2] [nM] | human MASP1 IC50 [3] [nM] | Binder
1 | 81 | 16 |  | FICSRSLP[Oic]I[Pen]IP-NH2 (disulfide 3-11; N-terminus assumed; SMILES CC[C@H](C)[C@H](NC(=O)[C@@H](N)Cc1ccccc1)C(=O)N[C@H]1CSSC(C)(C)[C@@H](C(=O)N[C@H](C(=O)N2CCC[C@H]2C(N)=O)[C@@H](C)CC)NC(=O)[C@H]([C@@H](C)CC)NC(=O)[C@@H]2C[C@@H]3CCCC[C@@H]3N2C(=O)[C@@H]2CCCN2C(=O)[C@H](CC(C)C)NC(=O)[C@H](CO)NC(=O)[C@H](CCCNC(=N)N)NC(=O)[C@H](CO)NC1=O) [FIC+SRSLP-(Oic)-I-(Pen)+IP-NH2]
2 | 603 | 17 |  | ICSRSLP[Oic]I[Pen]IPD-NH2 (disulfide 2-10; N-terminus assumed; SMILES CC[C@H](C)[C@H](N)C(=O)N[C@H]1CSSC(C)(C)[C@@H](C(=O)N[C@H](C(=O)N2CCC[C@H]2C(=O)N[C@@H](CC(=O)O)C(N)=O)[C@@H](C)CC)NC(=O)[C@H]([C@@H](C)CC)NC(=O)[C@@H]2C[C@@H]3CCCC[C@@H]3N2C(=O)[C@@H]2CCCN2C(=O)[C@H](CC(C)C)NC(=O)[C@H](CO)NC(=O)[C@H](CCCNC(=N)N)NC(=O)[C@H](CO)NC1=O) [IC+SRSLP-(Oic)-I-(Pen)+IPD-NH2]
3 | 500 | 19 |  | ICSRS[tBuAla]PPI[Pen]IPP-NH2 (disulfide 2-10; N-terminus assumed; SMILES CC[C@H](C)[C@H](N)C(=O)N[C@H]1CSSC(C)(C)[C@@H](C(=O)N[C@H](C(=O)N2CCC[C@H]2C(=O)N2CCC[C@H]2C(N)=O)[C@@H](C)CC)NC(=O)[C@H]([C@@H](C)CC)NC(=O)[C@@H]2CCCN2C(=O)[C@@H]2CCCN2C(=O)[C@H](CC(C)(C)C)NC(=O)[C@H](CO)NC(=O)[C@H](CCCNC(=N)N)NC(=O)[C@H](CO)NC1=O) [IC+SRS-((tBu)A)-PPI-(Pen)+IPP-NH2]
4 |  |  | 24 | [Phe(3-Br)]ICSRS[tBuAla]PPI[Pen]IPD-NH2 (disulfide 3-11; N-terminus assumed; SMILES CC[C@H](C)[C@H](NC(=O)[C@@H](N)Cc1cccc(Br)c1)C(=O)N[C@H]1CSSC(C)(C)[C@@H](C(=O)N[C@H](C(=O)N2CCC[C@H]2C(=O)N[C@@H](CC(=O)O)C(N)=O)[C@@H](C)CC)NC(=O)[C@H]([C@@H](C)CC)NC(=O)[C@@H]2CCCN2C(=O)[C@@H]2CCCN2C(=O)[C@H](CC(C)(C)C)NC(=O)[C@H](CO)NC(=O)[C@H](CCCNC(=N)N)NC(=O)[C@H](CO)NC1=O) [Example 330: ((3-Bromo)F)-IC+SRS-((tBu)A)-PPI-(Pen)+IPD-NH2]
5 |  |  | 52 | [Sar]ICSRSLPPICIPN-OH (disulfide 3-11; N-terminus assumed; SMILES CC[C@H](C)[C@H](NC(=O)CNC)C(=O)N[C@H]1CSSC[C@@H](C(=O)N[C@H](C(=O)N2CCC[C@H]2C(=O)N[C@@H](CC(N)=O)C(=O)O)[C@@H](C)CC)NC(=O)[C@H]([C@@H](C)CC)NC(=O)[C@@H]2CCCN2C(=O)[C@@H]2CCCN2C(=O)[C@H](CC(C)C)NC(=O)[C@H](CO)NC(=O)[C@H](CCCNC(=N)N)NC(=O)[C@H](CO)NC1=O) [Example 394: ((N-Me)G)-IC+SRSLPPIC+IPN-OH]
6 |  |  | 56 | GICSRSL[Pip]PICID-OH (disulfide 3-11; N-terminus assumed; SMILES CC[C@H](C)[C@H](NC(=O)CN)C(=O)N[C@H]1CSSC[C@@H](C(=O)N[C@H](C(=O)N[C@@H](CC(=O)O)C(=O)O)[C@@H](C)CC)NC(=O)[C@H]([C@@H](C)CC)NC(=O)[C@@H]2CCCN2C(=O)[C@@H]2CCCCN2C(=O)[C@H](CC(C)C)NC(=O)[C@H](CO)NC(=O)[C@H](CCCNC(=N)N)NC(=O)[C@H](CO)NC1=O) [Example 401: GIC+SRSL-(Pip)-PIC+ID-OH]
7 |  |  | 2 | AICSRSLP[Oic]I[Pen]IPD-OH (disulfide 3-11; also: sodium salt) [Example 431: AIC+SRSLP-(Oic)-I-(Pen)+IPD-OH (sodium salt)]

The remaining lines, values behind:

Row | Binder | human MASP2 IC50 [1] [nM] | human MASP1 IC50 [2] [nM] | human MASP1 IC50 [3] [nM]
8 | [Sar]ICTRSLPPICIPD-OH (disulfide 3-11; N-terminus assumed; SMILES CC[C@H](C)[C@H](NC(=O)CNC)C(=O)N[C@H]1CSSC[C@@H](C(=O)N[C@H](C(=O)N2CCC[C@H]2C(=O)N[C@@H](CC(=O)O)C(=O)O)[C@@H](C)CC)NC(=O)[C@H]([C@@H](C)CC)NC(=O)[C@@H]2CCCN2C(=O)[C@@H]2CCCN2C(=O)[C@H](CC(C)C)NC(=O)[C@H](CO)NC(=O)[C@H](CCCNC(=N)N)NC(=O)[C@H]([C@@H](C)O)NC1=O) [((N-Me)G)-IC+TRSLPPIC+IPD-OH] | 6500 | 16 | 
9 | [Sar]ICSRSLPPICI[αMeP]D-OH (disulfide 3-11; N-terminus assumed; SMILES CC[C@H](C)[C@H](NC(=O)CNC)C(=O)N[C@H]1CSSC[C@@H](C(=O)N[C@H](C(=O)N2CCC[C@@]2(C)C(=O)N[C@@H](CC(=O)O)C(=O)O)[C@@H](C)CC)NC(=O)[C@H]([C@@H](C)CC)NC(=O)[C@@H]2CCCN2C(=O)[C@@H]2CCCN2C(=O)[C@H](CC(C)C)NC(=O)[C@H](CO)NC(=O)[C@H](CCCNC(=N)N)NC(=O)[C@H](CO)NC1=O) [((N-Me)G)-IC+SRSLPP-IC+I-((2-Me)P)-D-OH] | 160 | 16 | 
10 | AICSRSLP[Oic]ICI-OH (disulfide 3-11; N-terminus assumed; SMILES CC[C@H](C)[C@H](NC(=O)[C@@H]1CSSC[C@H](NC(=O)[C@@H](NC(=O)[C@H](C)N)[C@@H](C)CC)C(=O)N[C@@H](CO)C(=O)N[C@@H](CCCNC(=N)N)C(=O)N[C@@H](CO)C(=O)N[C@@H](CC(C)C)C(=O)N2CCC[C@H]2C(=O)N2[C@@H](C[C@@H]3CCCC[C@@H]32)C(=O)N[C@@H]([C@@H](C)CC)C(=O)N1)C(=O)O) [AIC+SRSLP-(Oic)-IC+I-OH] | 930 | 16 | 
11 | {Tetrahydro‑2H‑pyran‑3‑ylacetic acid}-ICSRSLP[Oic]I[Pen]IP-NH2 (disulfide 2-10) [(Tetrahydro-2H-pyran-3-ylacetic acid)-IC+SRSLP-(Oic)-I-(Pen)+IP-NH2] | 12 | 17 | 
12 | [NMeA]ICSRSLPPICIPD-NH2 (disulfide 3-11; N-terminus assumed; SMILES CC[C@H](C)[C@H](NC(=O)[C@H](C)NC)C(=O)N[C@H]1CSSC[C@@H](C(=O)N[C@H](C(=O)N2CCC[C@H]2C(=O)N[C@@H](CC(=O)O)C(N)=O)[C@@H](C)CC)NC(=O)[C@H]([C@@H](C)CC)NC(=O)[C@@H]2CCCN2C(=O)[C@@H]2CCCN2C(=O)[C@H](CC(C)C)NC(=O)[C@H](CO)NC(=O)[C@H](CCCNC(=N)N)NC(=O)[C@H](CO)NC1=O) [((N-Me)A)-IC+SRSLPPIC+IPD-NH2] | 500 | 18 | 
13 | [NPhGly]ICSRS[tBuAla]PPI[NMeC]I-NH2 (disulfide 3-11; N-terminus assumed; SMILES CC[C@H](C)[C@H](NC(=O)[C@@H]1CSSC[C@H](NC(=O)[C@@H](NC(=O)CNc2ccccc2)[C@@H](C)CC)C(=O)N[C@@H](CO)C(=O)N[C@@H](CCCNC(=N)N)C(=O)N[C@@H](CO)C(=O)N[C@@H](CC(C)(C)C)C(=O)N2CCC[C@H]2C(=O)N2CCC[C@H]2C(=O)N[C@@H]([C@@H](C)CC)C(=O)N1C)C(N)=O) [((N-Ph)G)-IC+SRS-((tBu)A)-PPI-((N-Me)C)+I-NH2] | 42 | 18 | 
14 | [Orn]ICSRS[tBuAla]PPI[NMeC][X17]D-NH2 (disulfide 3-11; N-terminus assumed; SMILES CC[C@H](C)[C@H](NC(=O)[C@@H](N)CCCN)C(=O)N[C@H]1CSSC[C@@H](C(=O)N[C@H](c2nc(C(=O)N[C@@H](CC(=O)O)C(N)=O)co2)[C@@H](C)CC)N(C)C(=O)[C@H]([C@@H](C)CC)NC(=O)[C@@H]2CCCN2C(=O)[C@@H]2CCCN2C(=O)[C@H](CC(C)(C)C)NC(=O)[C@H](CO)NC(=O)[C@H](CCCNC(=N)N)NC(=O)[C@H](CO)NC1=O) | 910 | 18 | 
15 | Cyclobutanecarbonyl-ICSRS[tBuAla]PPI[NMeC]I-NH2 (disulfide 2-10; SMILES CC[C@H](C)[C@H](NC(=O)[C@@H]1CSSC[C@H](NC(=O)[C@@H](NC(=O)C2CCC2)[C@@H](C)CC)C(=O)N[C@@H](CO)C(=O)N[C@@H](CCCNC(=N)N)C(=O)N[C@@H](CO)C(=O)N[C@@H](CC(C)(C)C)C(=O)N2CCC[C@H]2C(=O)N2CCC[C@H]2C(=O)N[C@@H]([C@@H](C)CC)C(=O)N1C)C(N)=O) [(Cyclobutanecarboxylic)-IC+SRS-((tBu)A)-PPI-((N-Me)C)+I-NH2] | 19 | 18 | 
16 | AICSRSLPP[(3-Chloro-Ph)G]CIPD-NH2 (disulfide 3-11; N-terminus assumed; SMILES CC[C@H](C)[C@H](NC(=O)[C@H](C)N)C(=O)N[C@H]1CSSC[C@@H](C(=O)N[C@H](C(=O)N2CCC[C@H]2C(=O)N[C@@H](CC(=O)O)C(N)=O)[C@@H](C)CC)NC(=O)[C@H](c2cccc(Cl)c2)NC(=O)[C@@H]2CCCN2C(=O)[C@@H]2CCCN2C(=O)[C@H](CC(C)C)NC(=O)[C@H](CO)NC(=O)[C@H](CCCNC(=N)N)NC(=O)[C@H](CO)NC1=O) [AIC+SRSLPP-((3-Chloro-Ph)G)-C+IPD-NH2] | 1400 | 19 | 

Source: patent US20210246166A1 (Bayer, published 2021)
